Patent US20140179896A1 (published 2014)
Substitutions are numbered along the chain they refer to.

B1: 2′E4-PR4 (designed binder)
chain: VSDVPRDLEVVAATPTSLLISWRHPHFPTRYYRITYGETGGNSPVQEFTVPLQPPTATISGLKPGVDYTITGYAVTVHWNGHELMTPISINYRT
notes: WT N-terminus
B2: 2′H4-PR4 (designed binder)
chain: B1 chain with H78G, W79P, G81E, H82R, E83M
notes: WT N-terminus
B3: 2′C6-PR4 (designed binder)
chain: B1 chain with V77M, H78G, W79F, N80M, G81A, T86V
notes: WT N-terminus
B4: 2′D6-PR4 (designed binder)
chain: B1 chain with H78T, W79H, E83P
notes: WT N-terminus
B5: 4′B7 PR4 (designed binder)
chain: EVVAATPTSLLISWRHPHFPTRYYRITYGETGGNSPVQEFTVPLQPPTATISGLKPGVDYTITGYAVTVAQNNHELLTPISINYRT
notes: Del 1-8
B6: 4′G12 PR4 (designed binder)
chain: B5 chain with Q71W, N73D, L76I, L77Y
notes: Del 1-8
B7: 4′G4 PR4 (designed binder)
chain: B5 chain with N73D, H74R
notes: Del 1-8
B8: 4′H12 PR4 (designed binder)
chain: B5 chain with Q71H, N73D
notes: Del 1-8
B9: 4′H5 PR4 (designed binder)
chain: B5 chain with V69L, N73G, L77F
notes: Del 1-8
B10: 4′B8 PR4 (designed binder)
chain: B5 chain with N73D, E75K, L77F, T78I
notes: Del 1-8
B11: 4′C9 PR4 (designed binder)
chain: B5 chain with V69L, A70G, Q71P, N73D, L77M
notes: Del 1-8
B12: 4′H7 PR4 (designed binder)
chain: B5 chain with V69L, Q71H, N73D
notes: Del 1-8
B13: 4′E7 PR4 (designed binder)
chain: B5 chain with V69W, N73D
notes: Del 1-8
B14: 4′D8 PR4 (designed binder)
chain: B5 chain with V69L, N73G, L77Y
notes: Del 1-8
B15: 4′C5 PR4 (designed binder)
chain: B5 chain with V69L, A70G, Q71L, N73D, L77I
notes: Del 1-8
B16: 4′B11 PR4 (designed binder)
chain: B5 chain with V69M, Q71H, N73D
notes: Del 1-8
B17: 4′D6 PR4 (designed binder)
chain: B5 chain with V69M, N73D, L77M
notes: Del 1-8
B18: A3 (designed binder)
chain: B5 chain with V69D, A70G, Q71W, N73G, H74K, E75M, L77S, T78V
notes: 10Fn3 clone, Del 1-8
B19: A4 (designed binder)
chain: B5 chain with V69D, A70G, Q71Y, N73D, H74R, E75L, L77F, T78I
notes: 10Fn3 clone, Del 1-8
B20: C9 (designed binder)
chain: B5 chain with A70E, Q71R, N73G, H74L, E75V, L77M
notes: 10Fn3 clone, Del 1-8
B21: A9 (designed binder)
chain: B5 chain with V69E, A70G, Q71W, N73D, H74R, L77F, T78V
notes: 10Fn3 clone, Del 1-8
B22: C11 (designed binder)
chain: B5 chain with A70E, Q71R, N73G, H74R, E75V, L77I, T78V
notes: 10Fn3 clone, Del 1-8
B23: C8 (designed binder)
chain: B5 chain with V69L, A70E, Q71R, N73G, H74R, E75V, L77I
notes: 10Fn3 clone, Del 1-8
B24: B12 (designed binder)
chain: B5 chain with A70E, Q71R, N73G, H74R, L77R
notes: 10Fn3 clone, Del 1-8
B25: C12 (designed binder)
chain: B5 chain with A70E, Q71R, N73G, H74R, E75V, L77S, T78V
notes: 10Fn3 clone, Del 1-8
B26: A7 (designed binder)
chain: B5 chain with V69D, A70G, Q71P, H74R, L77I, T78V
notes: 10Fn3 clone, Del 1-8
B27: B10 (designed binder)
chain: B5 chain with V69L, A70E, Q71R, N73G, H74R, L77N
notes: 10Fn3 clone, Del 1-8
B28: C10 (designed binder)
chain: B5 chain with A70E, Q71R, N73G, H74R, E75V, L77I, T78I
notes: 10Fn3 clone, Del 1-8
B29: B11 (designed binder)
chain: B5 chain with A70E, Q71R, N73G, H74R, L77K
notes: 10Fn3 clone, Del 1-8
B30: B3 (designed binder)
chain: B5 chain with V69M, A70E, Q71R, N73G, H74R, L77M
notes: 10Fn3 clone, Del 1-8
B31: A11 (designed binder)
chain: B5 chain with V69L, A70E, Q71W, H74R, E75V, L77M
notes: 10Fn3 clone, Del 1-8
B32: B7, B8 (designed binder)
chain: B5 chain with A70E, Q71R, N73G, H74R
notes: 10Fn3 clone, Del 1-8
B33: B6 (designed binder)
chain: B5 chain with V69L, A70E, Q71R, N73G, H74K, L77M
notes: 10Fn3 clone, Del 1-8
B34: A8 (designed binder)
chain: B5 chain with V69D, A70G, Q71L, N73G, H74K, E75Y, L77F, T78V
notes: 10Fn3 clone, Del 1-8
B35: C7 (designed binder)
chain: B5 chain with V69H, A70E, Q71R, N73G, H74R, E75V, L77M
notes: 10Fn3 clone, Del 1-8
B36: B4 (designed binder)
chain: B5 chain with V69N, A70E, Q71R, N73G, H74R, L77M
notes: 10Fn3 clone, Del 1-8
B37: C6 (designed binder)
chain: B5 chain with V69L, A70E, Q71R, N73G, H74R, E75V, L77M
notes: 10Fn3 clone, Del 1-8
B38: A10 (designed binder)
chain: B5 chain with V69F, A70G, Q71W, N73G, H74R
notes: 10Fn3 clone, Del 1-8
B39: C2 (designed binder)
chain: B5 chain with A70E, Q71R, N73G, H74R, T78W
notes: 10Fn3 clone, Del 1-8
B40: B5 (designed binder)
chain: B5 chain with V69Q, A70E, Q71R, N73G, H74R, L77M
notes: 10Fn3 clone, Del 1-8
B41: F12 (designed binder)
chain: B5 chain with V69D, A70G, Q71R, N73G, L77M
notes: 10Fn3 clone, Del 1-8
B42: A12 (designed binder)
chain: B5 chain with A70E, Q71W, N73G, H74R, E75V, L77M
notes: 10Fn3 clone, Del 1-8
B43: G1 (designed binder)
chain: B5 chain with V69E, A70G, Q71R, N73G, H74R, L77M, T78V
notes: 10Fn3 clone, Del 1-8
B44: C1 (designed binder)
chain: B5 chain with V69Q, A70E, Q71R, N73G, H74R, L77R
notes: 10Fn3 clone, Del 1-8
B45: C3 (designed binder)
chain: B5 chain with V69L, A70E, Q71R, N73G, H74R, L77M, T78I
notes: 10Fn3 clone, Del 1-8

Target: T1, human vascular endothelial growth factor receptor-2 Fc chimera (KDR-Fc) (human, UniProt P35968 20-764)
T1 construct: range 1-764; also called human VEGFR-2; VEGF-R2-Fc; not shown: human IgG1 Fc
Assay: radioactive equilibrium binding, 1 nM KDR-Fc
Procedure: (§1) To prepare ³⁵S-labeled binding proteins for analysis, mRNA was prepared as described above for RNA-protein fusion production but the linker ligation step was omitted. The mRNA was expressed using rabbit reticulocyte lysate translation kit (Ambion) in the presence of ³⁵S-labeled Met at 30° C. for 1 hour. Expressed protein was purified on M2-agarose Flag beads (Sigma) as described above. This procedure produced the encoded protein without the nucleic acid tail. In a direct binding assay, VEGF-R2-Fc fusions in concentrations ranging from 0 to 200 nM were added to a constant concentration of the purified protein (0.2 or 0.5 nM) and incubated at 30° C. for 1 hour in buffer B. The receptor-binder complexes were captured using Protein A magnetic beads for another 10 minutes at room temperature using a Kingfisher™ The beads were washed with six reaction volumes of buffer B. The protein was eluted from the beads with 100 μL of 0.1 M KOH. […] of the reaction mixture and elution were dried onto a LumaPlate-96 (Packard) and the amount of ³⁵S on the plate was measured using a TopCount NXT instrument (Packard). The amount of fibronectin-based scaffold protein bound to the target was estimated as a percent of radioactivity eluted from Protein A magnetic beads compare to radioactivity in the reaction mixture. Nonspecific binding of fibronectin-based scaffold proteins to the beads was determined by measuring binding in the absence of KDR-Fc and represented less than 1-2% of the input. Specific binding was obtained through subtraction of nonspecific binding from total binding. Data was analyzed using the GraphPad Prizm software (GraphPad Software, Inc, San Diego, Calif.), fitted using a one site, non-linear binding equation.
T1 sequence (P35968 20-764 limits assumed, change not shown, form in doubt): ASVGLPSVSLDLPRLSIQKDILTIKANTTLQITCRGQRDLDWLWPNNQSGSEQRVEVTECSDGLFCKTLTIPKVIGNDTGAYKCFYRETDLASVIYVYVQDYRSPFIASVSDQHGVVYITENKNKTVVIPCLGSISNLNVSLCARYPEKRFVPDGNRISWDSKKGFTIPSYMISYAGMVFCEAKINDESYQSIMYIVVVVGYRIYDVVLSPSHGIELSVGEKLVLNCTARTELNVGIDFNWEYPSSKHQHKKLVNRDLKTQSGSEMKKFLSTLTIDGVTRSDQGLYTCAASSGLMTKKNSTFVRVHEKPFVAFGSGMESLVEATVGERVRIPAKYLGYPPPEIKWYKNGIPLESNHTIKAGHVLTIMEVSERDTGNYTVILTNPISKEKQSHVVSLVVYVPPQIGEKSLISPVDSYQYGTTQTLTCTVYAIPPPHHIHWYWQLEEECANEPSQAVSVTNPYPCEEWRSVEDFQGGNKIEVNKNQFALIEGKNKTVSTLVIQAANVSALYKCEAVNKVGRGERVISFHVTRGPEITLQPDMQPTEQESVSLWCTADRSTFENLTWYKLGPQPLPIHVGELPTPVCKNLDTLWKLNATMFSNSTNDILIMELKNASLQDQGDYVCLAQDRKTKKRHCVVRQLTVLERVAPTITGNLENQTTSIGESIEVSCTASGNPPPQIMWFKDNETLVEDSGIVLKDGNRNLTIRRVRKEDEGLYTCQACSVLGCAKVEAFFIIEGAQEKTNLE

Row | Binding to 1 nM KDR, % [%] | Binder
1 | 22 | B1
2 | 17 | B2
3 | 16 | B3
4 | 22 | B4
5 | 16 | B5
6 | 21 | B6
7 | 19 | B7
8 | 17 | B8
9 | 18 | B9
10 | 20 | B10
11 | 29 | B11
12 | 29 | B12
13 | 17 | B13
14 | 26 | B14
15 | 27 | B15
16 | 25 | B16
17 | 14 | B17

Target: T2, human vascular endothelial growth factor receptor-2 Fc chimera (KDR-Fc) (human, UniProt P35968 20-764)
T2 construct: range 1-764; also called human VEGFR-2; not shown: human IgG1 Fc
Assay: radioactive equilibrium binding assay, 1 nM KDR-Fc, % of input bound
Procedure: as §1
T2 sequence (P35968 20-764 limits assumed, change not shown, form in doubt): as above

Row | Binding to 1 nM KDR, % [%] | Binder
18 | 33 | B18
19 | 46 | B19
20 | 33 | B20
21 | 31 | B21
22 | 19 | B22
23 | 30 | B23
24 | 29 | B24
25 | 24 | B25
26 | 18 | B26
27 | 15 | B27
28 | 24 | B28
29 | 29 | B29
30 | 33 | B30
31 | 26 | B31
32 | 18 | B32
33 | 23 | B33
34 | 38 | B34
35 | 32 | B35
36 | 19 | B36
37 | 36 | B37
38 | 34 | B38
39 | 40 | B39
40 | 27 | B40
41 | 17 | B41
42 | 40 | B42
43 | 22 | B43
44 | 28 | B44
45 | 31 | B45

Target: T3, mouse vascular endothelial growth factor receptor-2 Fc chimera (Flk-1-Fc) (mouse, UniProt P35918 20-762)
T3 construct: Bought from R&D Systems; also called mouse VEGFR-2; not shown: Fc part of the purchased chimera, not specified
Assay: radioactive equilibrium binding assay, 1 nM Flk-1-Fc, % of input bound
Procedure: as §1

T3 sequence (P35918 20-762, change not shown): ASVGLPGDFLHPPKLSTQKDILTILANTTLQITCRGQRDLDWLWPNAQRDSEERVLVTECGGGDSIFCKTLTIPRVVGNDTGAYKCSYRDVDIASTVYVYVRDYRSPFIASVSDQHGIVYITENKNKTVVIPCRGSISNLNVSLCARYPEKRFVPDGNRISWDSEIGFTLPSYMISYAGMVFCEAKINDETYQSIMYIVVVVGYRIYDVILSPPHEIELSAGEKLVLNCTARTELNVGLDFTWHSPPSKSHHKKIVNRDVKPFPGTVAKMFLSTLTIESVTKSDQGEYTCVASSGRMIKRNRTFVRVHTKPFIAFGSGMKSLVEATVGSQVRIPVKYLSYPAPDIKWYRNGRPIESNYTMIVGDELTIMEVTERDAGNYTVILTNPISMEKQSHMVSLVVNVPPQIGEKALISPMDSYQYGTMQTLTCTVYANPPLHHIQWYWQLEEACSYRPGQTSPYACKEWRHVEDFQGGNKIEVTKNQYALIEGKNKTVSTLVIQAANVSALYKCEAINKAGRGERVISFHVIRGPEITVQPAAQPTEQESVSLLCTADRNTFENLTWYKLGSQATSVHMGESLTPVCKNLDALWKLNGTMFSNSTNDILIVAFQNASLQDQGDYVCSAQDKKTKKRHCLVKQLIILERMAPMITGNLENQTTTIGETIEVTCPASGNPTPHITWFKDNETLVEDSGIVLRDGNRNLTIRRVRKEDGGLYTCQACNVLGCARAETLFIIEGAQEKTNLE

Row | Binding to 1 nM Flk-1, % [%] | Binder
46 | 7 | B18
47 | 2 | B19
48 | 7 | B20
49 | 4 | B21
50 | 21 | B22
51 | 34 | B23
52 | 24 | B24
53 | 20 | B25
54 | 2 | B26
55 | 23 | B27
56 | 17 | B28
57 | 27 | B30
58 | 6 | B31
59 | 10 | B32
60 | 11 | B33
61 | 4 | B34
62 | 40 | B35
63 | 12 | B36
64 | 49 | B37
65 | 4 | B38
66 | 16 | B39
67 | 24 | B40
68 | 10 | B42
69 | 13 | B44
70 | 17 | B45
